Laboratory results: patent US20180298377A1 (RESEARCH FOUNDATION FOR THE STATE UNIVERSITY OF NEW YORK, published 2018)
One block for each binder: values may come before it.

Legend:
Pdr5-F[3] = Pdr5-F[3] (S. cerevisiae, UniProt P33302 1-1511; P00375 107-187); assay: cell-based or functional assay
Hxt1-F[3] = molecular target: T1, Hxt1-F[3] (S. cerevisiae, UniProt P32465 1-570; P00375 107-187); assay: cell-based or functional assay
T1 sequence (looked up): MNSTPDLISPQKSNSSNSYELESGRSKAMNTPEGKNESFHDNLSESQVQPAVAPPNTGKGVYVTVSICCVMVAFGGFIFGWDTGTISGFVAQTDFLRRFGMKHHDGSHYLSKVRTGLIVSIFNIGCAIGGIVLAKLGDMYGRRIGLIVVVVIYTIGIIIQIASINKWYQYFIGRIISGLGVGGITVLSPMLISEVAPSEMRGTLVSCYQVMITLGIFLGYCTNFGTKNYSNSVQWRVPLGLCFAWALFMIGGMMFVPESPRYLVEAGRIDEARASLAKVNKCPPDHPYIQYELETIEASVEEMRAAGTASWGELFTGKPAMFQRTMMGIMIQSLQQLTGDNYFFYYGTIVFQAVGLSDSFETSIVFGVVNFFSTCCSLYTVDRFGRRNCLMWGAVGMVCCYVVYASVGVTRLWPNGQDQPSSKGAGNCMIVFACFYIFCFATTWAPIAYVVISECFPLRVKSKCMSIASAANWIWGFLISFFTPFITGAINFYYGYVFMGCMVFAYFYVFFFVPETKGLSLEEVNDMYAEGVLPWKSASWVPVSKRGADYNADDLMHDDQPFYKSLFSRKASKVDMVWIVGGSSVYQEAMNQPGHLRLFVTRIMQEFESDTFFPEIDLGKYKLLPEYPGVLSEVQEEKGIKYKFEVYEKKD

Fpr1-F[3] = molecular target: T2, Fpr1-F[3] (S. cerevisiae, UniProt P20081 2-114; P00375 107-187); assay: cell-based or functional assay
T2 sequence (looked up): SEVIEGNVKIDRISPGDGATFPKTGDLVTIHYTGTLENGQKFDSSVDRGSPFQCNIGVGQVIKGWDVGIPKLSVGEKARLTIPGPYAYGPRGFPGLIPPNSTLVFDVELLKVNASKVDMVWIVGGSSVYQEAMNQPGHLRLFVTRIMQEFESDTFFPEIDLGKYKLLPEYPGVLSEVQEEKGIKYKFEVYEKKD

[1] = molecular target: T3, Pdr5 split Renilla luciferase (Rluc) PCA fusion (S. cerevisiae, UniProt P33302 1-1511); assay: split Renilla luciferase PCA, luminescence of yeast cells, 200 µM copper sulfate
T3 construct: whole, on cells; DHFR fragment of the Pdr5-F[3] strain replaced by an Rluc PCA fragment by homologous recombination; also called Pdr5 (Rluc PCA strain); not shown: linker of the pAG25/pAG32-linker-Rluc cassettes; Renilla luciferase PCA fragment; DHFR F[3] strains are said to receive Rluc F[1], but the next sentences call preys Rluc
Description: Triplicate fresh colonies of each diploid Rluc PCA strain were grown in 5 ml synthetic dextrose media supplemented with standard concentrations of histidine, leucine, and uracil at 30° C. for 24 h, then diluted 1:32 into 5 ml of the same media supplemented DMSO (0.5%), FK506 (50 μM), hydrogen peroxide (0.001%), sodium chloride (175 mM), or copper sulfate (200 μM). Cells were grown for 24 h at 30° C., diluted 1:32 again into fresh media containing the same supplement, and grown for another 6 h. Cells were counted, and 1-2×10⁷ cells were pelleted, and resuspended in 180 ul phosphate-buffered saline (PBS), pH 7.2 containing 1 mM EDTA. Cells were transferred to white 96-well flat bottom plates (Greiner bio-one #655075). The luciferase substrate, benzyl coelenterazine (Nanolight #301), was diluted 1:10 from the stock (2 mM in absolute ethanol) using 1×PBS, and 20 ul of diluted substrate was added to each sample (to a final concentration of […]). A Centro LB 960 microplate luminometer (Berthold Technologies) was used to measure the Rluc PCA signal, which was integrated for 10 seconds. Changes in luminescence in response to a specific condition were calculated by the following equation: luminescencecondition/luminescenceDMSO.

Snq2-F[3] = Snq2-F[3] (S. cerevisiae, UniProt P32568 2-1501; P00375 107-187); assay: cell-based or functional assay

T3 sequence (P33302 whole entry, the tested form may be a part): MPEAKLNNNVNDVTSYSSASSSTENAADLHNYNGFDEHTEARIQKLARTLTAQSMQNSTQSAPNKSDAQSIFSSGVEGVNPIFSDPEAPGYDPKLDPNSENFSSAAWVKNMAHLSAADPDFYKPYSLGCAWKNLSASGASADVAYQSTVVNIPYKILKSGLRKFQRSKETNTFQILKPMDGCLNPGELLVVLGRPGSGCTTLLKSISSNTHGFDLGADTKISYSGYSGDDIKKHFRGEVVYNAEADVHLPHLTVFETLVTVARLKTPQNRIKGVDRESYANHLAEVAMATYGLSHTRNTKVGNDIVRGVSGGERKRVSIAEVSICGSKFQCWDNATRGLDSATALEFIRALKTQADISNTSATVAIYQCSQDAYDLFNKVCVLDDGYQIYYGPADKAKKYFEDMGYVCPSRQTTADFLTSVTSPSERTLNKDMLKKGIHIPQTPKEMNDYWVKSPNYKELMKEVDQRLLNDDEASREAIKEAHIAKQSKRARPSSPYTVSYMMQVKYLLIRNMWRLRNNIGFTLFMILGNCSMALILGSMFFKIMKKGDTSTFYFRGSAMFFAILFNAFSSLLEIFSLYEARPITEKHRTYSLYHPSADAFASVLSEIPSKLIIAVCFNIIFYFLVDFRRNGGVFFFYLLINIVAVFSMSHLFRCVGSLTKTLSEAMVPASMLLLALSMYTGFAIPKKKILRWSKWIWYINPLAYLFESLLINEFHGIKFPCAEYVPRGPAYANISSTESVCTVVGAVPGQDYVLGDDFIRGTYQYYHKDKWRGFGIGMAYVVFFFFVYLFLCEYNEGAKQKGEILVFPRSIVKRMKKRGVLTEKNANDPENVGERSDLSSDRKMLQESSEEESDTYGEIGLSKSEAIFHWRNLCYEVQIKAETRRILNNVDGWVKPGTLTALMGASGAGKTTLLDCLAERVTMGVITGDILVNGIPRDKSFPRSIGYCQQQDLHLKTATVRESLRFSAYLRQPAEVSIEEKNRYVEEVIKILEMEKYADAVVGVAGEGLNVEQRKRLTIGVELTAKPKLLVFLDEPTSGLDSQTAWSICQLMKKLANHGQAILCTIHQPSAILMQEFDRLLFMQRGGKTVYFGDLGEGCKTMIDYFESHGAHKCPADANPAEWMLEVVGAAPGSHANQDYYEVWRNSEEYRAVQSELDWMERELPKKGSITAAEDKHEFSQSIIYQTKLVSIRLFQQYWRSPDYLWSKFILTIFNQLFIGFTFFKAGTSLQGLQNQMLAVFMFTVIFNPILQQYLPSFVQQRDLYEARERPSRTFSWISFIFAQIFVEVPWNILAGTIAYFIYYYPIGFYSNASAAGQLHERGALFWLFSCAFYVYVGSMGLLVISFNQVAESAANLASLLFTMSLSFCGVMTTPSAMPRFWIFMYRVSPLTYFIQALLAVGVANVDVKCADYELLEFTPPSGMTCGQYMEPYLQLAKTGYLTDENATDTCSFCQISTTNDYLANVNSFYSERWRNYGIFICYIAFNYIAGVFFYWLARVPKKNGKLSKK

B1: Fmp45-F[1,2] (other, UniProt Q07651 1-309, looked up, not shown: small tags and cut ends)
chain: MIFKRFVNLLVFLFLLGAGLLTFFLILSGGRESGTLKNFYWLQADTNGFNSAPSTTRWYNYNWCGYEDGQLANCSSRAPAKPFSPRDNFGNSVNLPSSFRNNRDTYYYLSRVGWAMLLISLFFIVLALVPGFLATFLPFKAVPVLYCVLSWLAFFFIILAACLYTGCYVKARKTFRNSGRSARLGPKNFAFIWTSVFLMLVNAIWSTIFSATHKAHSTYSDHDMYAQYESPSVDTGAQMEKSTYNSGATDGAGPITAAPVVGQPQPTTTTTPAGNGKFFQKLKTRKQVPSAELEPAGDGGLAGPVTVRDVRPLNCIVAVSQNMGIGKNGDLPWPPLRNEFKYFQRMTTTSSVEGKQNLVIMGRKTWFSIPEKNRPLKDRINIVLSRELKEPPRGAHFLAKSLDDALRLIEQPEL
fitness (PPiSeq, MTX(+), benign environment) (Pdr5-F[3]): 0.06

B2: Shr3-F[1,2] (other, UniProt Q02774 1-210, looked up, not shown: small tags and cut ends)
chain: MFSYSDFCSIGTAMILSATTFLMGVFFSNMPYDYHLLFNPNSTQEHFDLALRHYQILHETPLPVIVTLCVVAGIGLVGGTIKVFKPNPELQMFEYCSLGLYVLAICVFLTNVKTGIDCSVSHNWGEVTENQGLAVIASSNIILLVMFAGVIILQIGLWYSNWDLQKRLKEFYAQEEREAANAGKKTEKVDNAKKNDNKSKGAQKRKNAKKVRPLNCIVAVSQNMGIGKNGDLPWPPLRNEFKYFQRMTTTSSVEGKQNLVIMGRKTWFSIPEKNRPLKDRINIVLSRELKEPPRGAHFLAKSLDDALRLIEQPEL
fitness (PPiSeq, MTX(+), benign environment) (Hxt1-F[3]): 0.1

Results, then the binder that gave them:

fitness in 50 µM FK506 against the benign environment (PPiSeq, MTX(+)) (Fpr1-F[3]): ~10 fold
B3: Hom3-F[1,2] (other, UniProt P10869 1-527, looked up, not shown: small tags and cut ends)
chain: MPMDFQPTSSHSNWVVQKFGGTSVGKFPVQIVDDIVKHYSKPDGPNNNVAVVCSARSSYTKAEGTTSRLLKCCDLASQESEFQDIIEVIRQDHIDNADRFILNPALQAKLVDDTNKELELVKKYLNASKVLGEVSSRTVDLVMSCGEKLSCLFMTALCNDRGCKAKYVDLSHIVPSDFSASALDNSFYTFLVQALKEKLAPFVSAKERIVPVFTGFFGLVPTGLLNGVGRGYTDLCAALIAVAVNADELQVWKEVDGIFTADPRKVPEARLLDSVTPEEASELTYYGSEVIHPFTMEQVIRAKIPIRIKNVQNPLGNGTIIYPDNVAKKGESTPPHPPENLSSSFYEKRKRGATAITTKNDIFVINIHSNKKTLSHGFLAQIFTILDKYKLVVDLISTSEVHVSMALPIPDADSLKSLRQAEEKLRILGSVDITKKLSIVSLVGKHMKQYIGIAGTMFTTLAEEGINIEMISQGANEINISCVINESDSIKALQCIHAKLLSERTNTSNQFEHAIDERLEQLKRLGIVRPLNCIVAVSQNMGIGKNGDLPWPPLRNEFKYFQRMTTTSSVEGKQNLVIMGRKTWFSIPEKNRPLKDRINIVLSRELKEPPRGAHFLAKSLDDALRLIEQPEL

binding result [1]: binds
B4: Ftr1 split Renilla luciferase (Rluc) PCA fusion (other, S. cerevisiae, UniProt P40088 1-404, looked up)
chain: MPNKVFNVAVFFVVFRECLEAVIVISVLLSFLKQAIGEHDRALYRKLRIQVWVGVLLGFIICLAIGAGFIGAYYSLQKDIFGSAEDLWEGIFCMIATIMISMMGIPMLRMNKMQSKWRVKIARSLVEIPHRKRDYFKIGFLSRRYAMFLLPFITVLREGLEAVVFVAGAGITTQGSHASAYPLPVVVGLICGGLVGYLLYYGASKSSLQIFLILSTSILYLISAGLFSRGAWYFENYRFNLASGGDASEGGDGNGSYNIRKAVYHVNCCNPELDNGWDIFNALLGWQNTGYLSSMLCYNIYWLVLIIVLSLMIFEERRGHLPFTKNLQLKHLNPGYWIKNKKKQELTEEQKRQLFAKMENINFNEDGEINVQENYELPEQTTSHSSSQNVATDKEVLHVKADSL
notes: whole, on cells; DHFR fragment of the Ftr1-F[1,2] strain replaced by an Rluc PCA fragment by homologous recombination; also called Ftr1 (Rluc PCA strain); not shown: linker of the pAG25/pAG32-linker-Rluc cassettes; Renilla luciferase PCA fragment; DHFR F[1,2] strains are said to receive Rluc F[2], but the next sentences call baits Rl

fitness (PPiSeq, MTX(+), benign environment, relative to control strain lacking mDHFR fragments) (Pdr5-F[3]): 0.1
B5: Ftr1-F[1,2] (other, UniProt P40088 1-404, looked up, not shown: small tags and cut ends)
chain: MPNKVFNVAVFFVVFRECLEAVIVISVLLSFLKQAIGEHDRALYRKLRIQVWVGVLLGFIICLAIGAGFIGAYYSLQKDIFGSAEDLWEGIFCMIATIMISMMGIPMLRMNKMQSKWRVKIARSLVEIPHRKRDYFKIGFLSRRYAMFLLPFITVLREGLEAVVFVAGAGITTQGSHASAYPLPVVVGLICGGLVGYLLYYGASKSSLQIFLILSTSILYLISAGLFSRGAWYFENYRFNLASGGDASEGGDGNGSYNIRKAVYHVNCCNPELDNGWDIFNALLGWQNTGYLSSMLCYNIYWLVLIIVLSLMIFEERRGHLPFTKNLQLKHLNPGYWIKNKKKQELTEEQKRQLFAKMENINFNEDGEINVQENYELPEQTTSHSSSQNVATDKEVLHVKADSLVRPLNCIVAVSQNMGIGKNGDLPWPPLRNEFKYFQRMTTTSSVEGKQNLVIMGRKTWFSIPEKNRPLKDRINIVLSRELKEPPRGAHFLAKSLDDALRLIEQPEL

fitness (PPiSeq, MTX(+), benign environment) (Snq2-F[3]): 0.08
B6: Tpo1-F[1,2] (other, UniProt Q07824 1-586, looked up, not shown: small tags and cut ends)
chain: MSDHSPISNKENHLLPSDSSRSSSSDMHSTGTTGTTGVEPVDFTGEGAKYTTATEGNGGADLAIQRTTTMNSAAESEVNITRRLTKILTGSVNEPDRVEVDYTNCAPMGGDRPYPPSLPSRDLYEVTFDGPNDPLHPFNWPMKKKVLLCLVLCLDSIAIAMCSSIFASAVPQICEIYHVIEVVAILGITLFVLGFAASPVIYAPLSELYGRKGVLVLSAFGFALFQFAVATAENLQTIFICRFFGGFIGAAPMAVVPAAFADMFDTNVRGKAIALFSLGVFVGPILSPVMGSYIAQRTTWRWLEYVVGCFASAVFVAIVLFFEETHHPTILVNKAKQMRKQSNNWGIHAAHEDVELSIKDIVQKTVTRPIIMLFVEPLLLFVTIYNSFVYGILYLLLEAYPLVFVEGYGFTENGELPYIALIIGMMVCAAFIWYMDNDYLKRCRAKGKLVPEARLYAMVIAGTVFPIGILWFCWTGYYPHKIHWMVPTVGGAFIGFGLMGIFLPCLNYIIESYLLLAASAVAANTFMRSAFGACFPLFAGYMFRGMGIGWAGLLLGLFAAAMIPVPLLFLKYGESIRKKSKYAYAAVRPLNCIVAVSQNMGIGKNGDLPWPPLRNEFKYFQRMTTTSSVEGKQNLVIMGRKTWFSIPEKNRPLKDRINIVLSRELKEPPRGAHFLAKSLDDALRLIEQPEL
